Results reported in patent US20250313626A1 (HARBOUR BIOMED SHANGHAI, published 2025).
Residue numbers refer to the chain shown, from its start.

T1: human CD200R1 isoform a on CHOK1 cells (CHOK1/hCD200R1a) (human, UniProt Q8TD46 25-348)
T1 construct: also called CHOK1/CD200R1a
T1 sequence: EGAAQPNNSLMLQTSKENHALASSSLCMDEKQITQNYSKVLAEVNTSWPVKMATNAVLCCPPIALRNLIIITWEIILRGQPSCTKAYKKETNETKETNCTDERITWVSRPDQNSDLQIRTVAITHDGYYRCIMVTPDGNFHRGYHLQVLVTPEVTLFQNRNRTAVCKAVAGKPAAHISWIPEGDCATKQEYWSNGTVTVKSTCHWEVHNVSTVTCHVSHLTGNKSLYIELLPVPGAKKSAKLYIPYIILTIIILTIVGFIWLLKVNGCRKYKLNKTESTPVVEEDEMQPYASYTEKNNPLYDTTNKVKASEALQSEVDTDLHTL

T2: human CD200R1a protein (soluble recombinant) (human, UniProt Q8TD46 29-265)
T2 construct: Soluble protein used in BLI; also called human CD200R1 isoform a; not shown: His tag implied by capture on anti-Penta-HIS biosensors
T2 sequence: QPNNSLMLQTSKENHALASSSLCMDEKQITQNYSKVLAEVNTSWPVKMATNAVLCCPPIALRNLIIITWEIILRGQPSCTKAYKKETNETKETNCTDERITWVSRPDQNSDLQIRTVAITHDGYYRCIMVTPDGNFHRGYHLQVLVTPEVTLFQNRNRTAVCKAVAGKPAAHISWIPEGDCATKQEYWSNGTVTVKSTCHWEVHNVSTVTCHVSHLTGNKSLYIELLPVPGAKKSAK

B1: PR006480 (antibody, human IgG1, kappa, L234A L235A)
heavy: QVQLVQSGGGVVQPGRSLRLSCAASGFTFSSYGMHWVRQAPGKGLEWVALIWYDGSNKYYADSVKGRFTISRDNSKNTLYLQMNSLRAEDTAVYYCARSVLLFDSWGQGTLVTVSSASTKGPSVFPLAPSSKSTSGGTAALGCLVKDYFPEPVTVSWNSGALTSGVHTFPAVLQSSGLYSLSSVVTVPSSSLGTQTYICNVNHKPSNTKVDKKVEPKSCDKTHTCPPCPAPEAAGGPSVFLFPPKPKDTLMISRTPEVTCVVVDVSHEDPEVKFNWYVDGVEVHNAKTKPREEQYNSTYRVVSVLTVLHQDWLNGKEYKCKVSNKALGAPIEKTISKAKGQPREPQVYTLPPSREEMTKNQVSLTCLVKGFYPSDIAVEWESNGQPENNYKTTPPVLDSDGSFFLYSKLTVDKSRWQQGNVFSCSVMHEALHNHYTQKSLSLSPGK
light: DIQMTQSPPSLSASVGDRVTITCRASQSISSYLNWFQQKAGKAPKLLISATSNLQSGVPSRFSGSGSGTDFTLTISSLQPEDLATYYCQQSYSSPYTFGQGTKVEIKRTVAAPSVFIFPPSDEQLKSGTASVVCLLNNFYPREAKVQWKVDNALQSGNSQESVTEQDSKDSTYSLSSTLTLSKADYEKHKVYACEVTHQGLSSPVTKSFNRGEC
notes: also called PR6480
B2: PR007221 (antibody, human IgG1, kappa)
heavy: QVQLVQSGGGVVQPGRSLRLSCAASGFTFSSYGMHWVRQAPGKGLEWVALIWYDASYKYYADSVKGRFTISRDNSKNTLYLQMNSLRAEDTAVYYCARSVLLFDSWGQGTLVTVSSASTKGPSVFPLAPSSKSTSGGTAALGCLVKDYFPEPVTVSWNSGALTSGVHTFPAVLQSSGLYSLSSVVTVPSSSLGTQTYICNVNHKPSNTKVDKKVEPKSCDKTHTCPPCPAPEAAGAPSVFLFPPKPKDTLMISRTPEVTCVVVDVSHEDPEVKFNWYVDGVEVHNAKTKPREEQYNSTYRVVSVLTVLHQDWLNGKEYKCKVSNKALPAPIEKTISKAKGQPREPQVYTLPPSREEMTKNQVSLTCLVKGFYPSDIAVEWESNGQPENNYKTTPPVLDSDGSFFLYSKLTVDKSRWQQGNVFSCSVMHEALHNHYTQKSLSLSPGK
light: B1 light with M4L, S91T, Y92L
notes: PTM variant of PR006895 (human IgG1)
B3: PR007223 (antibody, human IgG1, kappa)
heavy: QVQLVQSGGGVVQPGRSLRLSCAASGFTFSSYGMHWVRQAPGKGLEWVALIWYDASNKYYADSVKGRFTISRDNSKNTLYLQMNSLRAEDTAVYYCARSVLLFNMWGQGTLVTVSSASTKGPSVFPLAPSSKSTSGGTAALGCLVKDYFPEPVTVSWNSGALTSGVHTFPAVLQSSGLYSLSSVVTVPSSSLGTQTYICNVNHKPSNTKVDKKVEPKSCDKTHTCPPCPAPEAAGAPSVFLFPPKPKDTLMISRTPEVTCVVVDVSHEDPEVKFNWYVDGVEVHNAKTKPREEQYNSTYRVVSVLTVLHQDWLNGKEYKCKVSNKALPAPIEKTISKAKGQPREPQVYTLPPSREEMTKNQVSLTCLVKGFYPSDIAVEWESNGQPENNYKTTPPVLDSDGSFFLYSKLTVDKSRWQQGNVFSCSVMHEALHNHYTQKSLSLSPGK
light: B1 light with M4L, S91T
notes: as for B2
B4: PR005509 (antibody, human IgG1, kappa, L234A L235A, V domains shown)
VH: QVQLVESGGGVVQPGRSLRLSCAASGFTFSSYGFHWVRQAPGKGLEWLGLIWSDGSNKYYADSVKGRFTISRDNSKNTLYLQMNSLRAEDTAVYYCARDRIVGAGFDYWGQGTLVTVSS
VL: not shown
B5: PR007973 (antibody, human IgG1, kappa, V domains shown)
VH: B4 VH with L50I, G55A, A104E
VL: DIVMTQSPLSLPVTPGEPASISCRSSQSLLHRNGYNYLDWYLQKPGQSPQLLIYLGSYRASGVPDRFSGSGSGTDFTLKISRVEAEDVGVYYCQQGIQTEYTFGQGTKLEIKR
notes: PTM variant of PR006839 (human IgG1)
B6: PR005474 (antibody, human IgG1, kappa, L234A L235A, V domains shown)
VH: B4 VH with G26A, F34M, L48V, G49A, S53N, Y59F, Y80F, V102L
VL: not shown
B7: PR002906 (antibody, V domains shown)
VH: QVQLQESGPGLVKPSETLSLTCTVSGYTITSGYDWSWIRQPPGKGLEWIGYINYGGSTNYKPSLGSRVTISVDTSKNQFSLKLSSVTAADTAVYYCARYNEYKSYIYDWYFDFWGQGTLVTVSS
VL: DIQMTQSPSSLSASVGDRVTITCKASKNIRSYLAWYQQKPGKAPKLLIYSGSTLHSGVPSRFSGSGSGTDFTLTISSLQPEDFATYYCQQHHEYPLTFGQGTKVEIKR
notes: also called recombinant IgG1 antibody of huDX182

How the values were obtained:
[1] = molecular target: T1, human CD200R1 isoform a on CHOK1 cells …; test: flow cytometry, CHOK1/hCD200R1a cells; table beside the curves, head without unit, x axis Log [Ab] (nM)
Description: (§1) This example is intended to investigate the in vitro binding activity of human anti-CD200R1 monoclonal antibodies to human/Cynomolgus macaques CD200R1a expressed on the surface of cells. The anti-CD200R1 antibodies were produced as described in Example 3.4 and the binding experiments at the cell level were performed using CHOK1/hCD200R1a and CHOK1-cynoCD200R1a.
(§2) Briefly, CHOK1/hCD200R1a cells and CHOK1-cynoCD200R1a cells were digested, and collected, and then were resuspended in PBS containing 2% BSA, respectively. The cell density was adjusted to 1×10⁶ cells/mL. The cells were seeded in a 96-well V-bottom plate (Corning, #3894) at 100 μL/well, followed by the addition of test antibodies and reference antibodies in a series diluted concentration, each at 100 μL/well. The cells were incubated away from light at 4° C. for 1 h. Thereafter, the cells in each well were rinsed twice with 100 μL of pre-cooled PBS containing 2% BSA, and centrifuged at 500 g at 4° C. for 5 min, and then the supernatant was discarded. 100 μL of fluorescent secondary antibody (Alexa Fluor 488-conjugated AffiniPure Goat Anti-Human IgG, Fcγ Fragment Specific, Jackson, #109-545-098, diluted in a 1:1000 ratio) was added in each well, and the plate was incubated away from light at 4° C. for 1 h. The cells in each well were rinsed twice with 100 μL of pre-cooled PBS containing 2% BSA, and centrifuged at 500 g at 4° C. for 5 min, and then the supernatant was discarded. Finally, the cells in each well were resuspended in 200 μL of pre-cooled PBS containing 2% BSA, and the fluorescence signal values were read using a BD CantoII flow cytometer.

[2] = molecular target: T1, human CD200R1 isoform a on CHOK1 cells …; test: flow cytometry blocking assay: antibody titrated against biotin-labelled human CD200 binding to CHOK1/hCD200R1a cells
Description: To study the activity of human anti-CD200R1 antibodies in blocking the binding of human CD200 to its receptor CD200R1a in vitro, CHOK1/hCD200R1a was used to perform cell-level human CD200/human CD200R1a binding and blocking experiments.
(§3) In brief, CHOK1/hCD200R1a cells were digested and resuspended in 2% BSA in PBS. […] The cells were placed at 4° C. and incubated for 1 hour in the dark. […] 100 μL/well of pre-cooled PBS containing 2% BSA was added to rinse the cells twice, centrifugation was performed at 500 g, 4° C. for 5 minutes, and the supernatant was discarded. Fluorescent secondary antibody (PE Streptavidin, BD, Cat #: 554061, 1:200) was added at 100 μL/well, and incubation was performed at 4° C. for 30 minutes in the dark. The cells were washed twice with 200 μL/well of pre-cooled PBS, and were centrifuged at 500 g, 4° C. for 5 minutes, and the supernatant was discarded. Finally, 200 μL/well of pre-cooled PBS was used to resuspend the cells, and the fluorescence signal values were read using ACEA Novocyte 3000 flow cytometer. IC50 values were calculated.

[3] = molecular target: T1, human CD200R1 isoform a on CHOK1 cells …; test: flow cytometry blocking assay: biotin-labelled human CD200 binding to CHOK1/hCD200R1a cells; y axis Inhibition %
Description: as §3

[4] = molecular target: T1, human CD200R1 isoform a on CHOK1 cells …; test: flow cytometry, CHOK1/hCD200R1a cells (FITC-Mean); table beside the curves
Description: as §1, §2

[5] = molecular target: T2, human CD200R1a protein (soluble …); test: BLI in-tandem competition on His-captured human CD200R1a; row = 1st Ab (400 nM); competitor (2nd Ab) PR007223
Description: (§4) To determine if the anti-CD200R1 antibodies bind to human CD200R1a on different or approximate binding epitopes, epitope competition experiments for the anti-CD200R1 antibodies were performed by the ForteBlio Octet® RED96e platform. […] The in-tandem competition assay format was applied, and it contained two association steps. Firstly, the antigen-loaded biosensors bound to each antibody (i.e., First antibody, 1st Ab) at a saturating concentration of 400 nM for 300 seconds to reach equilibrium and then secondly bound to the competing antibodies (i.e., Second antibody, 2nd Ab) of 400 nM for 300 seconds. The second binding signals are recorded as the 100% signal of each antibody when the first antibodies are replaced by kinetic buffer. All the binding data were analyzed using ForteBlio Data Analysis 11.0 software. The inhibition rate was calculated by the following formula: […]

[6] = molecular target: T2, human CD200R1a protein (soluble …); test: BLI in-tandem competition on His-captured human CD200R1a; row = 1st Ab (400 nM); competitor (2nd Ab) PR006207
Description: as §4

Binder | EC50 [1] [nM] | Blocking (Max %) [2] [%] | IC50 [2] [nM] | Blocking(Max) [3] [%] | MFI(Max) [4] | Inhibition ratio (%) [5] [%] | Inhibition ratio (%) [6] [%]
B1 | 33 | 63.3 | 0.607 | 61 | 8890 |  | 
B2 |  |  |  | 80.4 | 11100 | 89 | -40.7
B3 |  |  |  | 88 | 9890 | 91.8 | -50.2
B4 |  | 102 | 0.485 |  |  |  | 
B5 |  |  |  |  |  | 91.7 | -44.7
B6 | 9.36 | 101 | 0.309 |  |  |  | 
B7 | 14.8 | 98.3 | 1.58 | 95.4 | 11100 |  | 
